Data: US20240366811A1, “RA[…] P[…] USES THEREOF” (TIANJIN CONJUSTAR BIOLOGICS CO., LTD., priority 2023, published 2024)
*1 amine or outer side, *2 acyl side, *3 side chain or, on linkers, in order; H or OH if unused. Where a SMILES comes first, the peptide text is derived from it. Bridges are numbered along the chain shown (N, C = ends). [ ]: non-standard residue; d: D form. The star is where a group is joined. TATA = O=C(CC[*:1])N1CN(C(=O)CC[*:2])CN(C(=O)CC[*:3])C1; NOTA = O=C(O)CN1CCN(CC(=O)O)CCN(CC(=O)*)CC1; Hyp = O=C(O)[C@@H]1C[C@@H](O)CN1; hArg = N=C(N)NCCCC[C@H](N)C(=O)O; Pen = CC(C)(S)[C@H](N)C(=O)O; βAla = NCCC(=O)O; Sar = CNCC(=O)O

Assays:
[1] = in vivo; settings: nude, mouse, tumor, iv, 11.1 MBq, total radioactivity, radioactive uptake: Tumor, 4 h, dissected tissue, single iv 11.1 MBq
Experimental: In vivo radiobiological distribution assay: mice in the PET/CT imaging group were sacrificed immediately after the end of 4 h imaging, and mice in the inhibition group were sacrificed after 1 h imaging. Tissue samples of tumor, blood, heart, lung, liver, spleen, kidney, stomach, intestine, bone, muscle, and brain were collected by dissection, weighed and their radioactive counts were recorded. The probe uptake value in each tissue and organ of each experimental animal is expressed as radioactivity per gram of tissue as a percentage of the dose administered (% ID/g).

[2] = in vivo; settings: nude, mouse, iv, 11.1 MBq, total radioactivity
Experimental: The tissue distribution characteristics of the compounds in PC-3 tumor-bearing mice were studied by using the PC-3 tumor-bearing mice model, small animal PET/CT scans were performed at different time points after a single intravenous administration of the compounds, tumors and other regions of interest were delineated to obtain radioactive uptake values.
Tumor cells in the logarithmic growth phase were used for in vivo tumor inoculation. PC-3 cells were suspended in saline at a density of 5×10^6/mL, and a total of 15 nude mice were inoculated under the right flank at 0.1 mL per inoculation point. Imaging and biodistribution experiments were performed when tumors grew to 300-600 mm^3 (tumor volume measurement method: the long diameter and short diameter of the tumor were measured, and its volume calculation formula was: volume=0.5× major diameter× minor diameter^2). The drug was distributed according to the animal dose on the drug distribution table, and a certain volume of compound diluent was absorbed by a 1 mL insulin syringe, and the initial radioactive dose and initial dosimetry time were recorded. The injection time, residual radioactivity dose, and residual dose determination time were recorded after tail vein injection in tumor-bearing mice. […] PET/CT scans of animals were performed at different time points after administration. During the scanning process, the animals continued to inhale 1-2% isoflurane to maintain the anesthetic effect, and the scanning time was recorded. […] After the completion of PET/CT scanning, the images were reconstructed and the images and data were processed with the software of the device. The tumor, heart (including contents), kidney, intestine, and muscle were delineated as regions of interest. The percentage injection dose rate per gram of tissue in the area of interest (% ID/g) was obtained. The data of biological distribution was expressed as the percentage of radioactive count per gram of tissue or organ to the total dose (radioactive count) (% ID/g).
Data for each sampling point were expressed as the mean standard deviation (mean SD) of 3 tumor-bearing mice.

[3] = tumor and heart (including contents)

Work on `CC(C)C[C@@H]1NC(=O)[C@@H]2CSCCC(=O)N3CN(CN(C3)C(=O)CCSC(C)(C)[C@@H](C(N)=O)NC(=O)[C@H](CCCCNC(=N)N)NC(=O)[C@H](Cc3c[nH]c4ccccc34)NC(=O)[C@@H](CC(=O)O)NC(=O)[C@@H]3CCCN3C(=O)[C@H](Cc3c[nH]cn3)NC1=O)C(=O)CCSC[C@H](NC(=O)[C@@H]1CC(=O)NCCCC[C@H](NC(=O)CN(C)C(=O)CN(C)C(=O)CN(C)C(=O)CN(C)C(=O)CN(C)C(=O)CN(C)C(=O)CN(C)C(=O)CN(C)C(=O)CN(C)C(=O)CN(C)C(=O)CCNC(=O)CN3CCN(CC(=O)O)CCN(CC(=O)O)CC3)C(=O)N[C@@H](CCCCNC(=N)N)C(=O)N1)C(=O)N1C[C@H](O)C[C@H]1C(=O)N[C@@H](CC(C)C)C(=O)N[C@@H](C(C)C)C(=O)N[C@@H](CC(N)=O)C(=O)N1CCC[C@H]1C(=O)N[C@@H](CC(C)C)C(=O)N2` [Example 3] ({NOTA-βAla}-[Sar][Sar][Sar][Sar][Sar][Sar][Sar][Sar][Sar][Sar]K[hArg]DC[Hyp]LVNPLCLHP[dD]W[hArg][Pen]-NH2; lactam 11-13; linker 14-21-28 via TATA) yielded a tissue uptake at 4 h ([1]; mouse S1) of 5.03 %ID/g, a tissue uptake at 4 h ([1]; mouse S2) of 2.19 %ID/g and a tissue uptake at 4 h ([1]; mouse S3) of 5.9 %ID/g. The tissue uptake at 2 min ([2]; heart (including contents)) was 3.35 ± 0.35 %ID/g, the tissue uptake at 5 min ([2]; heart (including contents)) was 2.95 ± 0.63 %ID/g and the tissue uptake at 8 min ([2]; heart (including contents)) was 2.59 ± 0.67 %ID/g. The tissue uptake at 11 min ([2]; heart (including contents)) was 2.18 ± 0.51 %ID/g, the tissue uptake at 14 min ([2]; heart (including contents)) was 1.86 ± 0.41 %ID/g and the tissue uptake at 17 min ([2]; heart (including contents)) was 1.65 ± 0.38 %ID/g. It also gave a tissue uptake at 20 min ([2]; heart (including contents)) of 1.51 ± 0.36 %ID/g, a tissue uptake at 23 min ([2]; heart (including contents)) of 1.41 ± 0.31 %ID/g and a tissue uptake at 26 min ([2]; heart (including contents)) of 1.28 ± 0.3 %ID/g. It also gave a tissue uptake at 29 min ([2]; heart (including contents)) of 1.18 ± 0.24 %ID/g, a tissue uptake at 0.5 h ([2]; heart (including contents)) of 1.21 ± 0.3 %ID/g and a tissue uptake at 1 h ([2]; heart (including contents)) of 0.65 ± 0.25 %ID/g. The tissue uptake at 2 h ([2]; heart (including contents)) was 0.15 ± 0.06 %ID/g, the tissue uptake at 4 h ([2]; heart (including contents)) was 0.06 ± 0.02 %ID/g and the tissue uptake at 2 min ([2]; kidney) was 15 ± 0.64 %ID/g. For the same compound, the tissue uptake at 5 min ([2]; kidney) was 14.6 ± 2.02 %ID/g, the tissue uptake at 8 min ([2]; kidney) was 14.9 ± 2.94 %ID/g and the tissue uptake at 11 min ([2]; kidney) was 15.2 ± 2.41 %ID/g. The tissue uptake at 14 min ([2]; kidney) was 15.1 ± 2.42 %ID/g, the tissue uptake at 17 min ([2]; kidney) was 14.4 ± 2.34 %ID/g and the tissue uptake at 20 min ([2]; kidney) was 14.4 ± 2.61 %ID/g. It also gave a tissue uptake at 23 min ([2]; kidney) of 13.9 ± 2.02 %ID/g, a tissue uptake at 26 min ([2]; kidney) of 12.5 ± 1.35 %ID/g and a tissue uptake at 29 min ([2]; kidney) of 11.5 ± 0.94 %ID/g. For the same compound, the tissue uptake at 0.5 h ([2]; kidney) was 11.6 ± 1.26 %ID/g, the tissue uptake at 1 h ([2]; kidney) was 9.68 ± 0.18 %ID/g and the tissue uptake at 2 h ([2]; kidney) was 8.82 ± 0.68 %ID/g. It also gave a tissue uptake at 4 h ([2]; kidney) of 8.03 ± 0.35 %ID/g, a tissue uptake at 2 min ([2]; liver) of 2.62 ± 0.25 %ID/g and a tissue uptake at 5 min ([2]; liver) of 2.22 ± 0.41 %ID/g. The tissue uptake at 8 min ([2]; liver) was 1.94 ± 0.35 %ID/g, the tissue uptake at 11 min ([2]; liver) was 1.6 ± 0.23 %ID/g and the tissue uptake at 14 min ([2]; liver) was 1.44 ± 0.23 %ID/g. It also gave a tissue uptake at 17 min ([2]; liver) of 1.23 ± 0.15 %ID/g, a tissue uptake at 20 min ([2]; liver) of 1.14 ± 0.14 %ID/g and a tissue uptake at 23 min ([2]; liver) of 1.07 ± 0.14 %ID/g. The tissue uptake at 26 min ([2]; liver) was 0.97 ± 0.16 %ID/g, the tissue uptake at 29 min ([2]; liver) was 0.91 ± 0.1 %ID/g and the tissue uptake at 0.5 h ([2]; liver) was 0.92 ± 0.07 %ID/g. The tissue uptake at 1 h ([2]; liver) was 0.59 ± 0.21 %ID/g, the tissue uptake at 2 h ([2]; liver) was 0.22 ± 0.04 %ID/g and the tissue uptake at 4 h ([2]; liver) was 0.13 ± 0.05 %ID/g. For the same compound, the tissue uptake at 2 min ([2]; muscle) was 1.06 ± 0.1 %ID/g, the tissue uptake at 5 min ([2]; muscle) was 1.02 ± 0.18 %ID/g and the tissue uptake at 8 min ([2]; muscle) was 0.97 ± 0.16 %ID/g. The tissue uptake at 11 min ([2]; muscle) was 0.91 ± 0.19 %ID/g, the tissue uptake at 14 min ([2]; muscle) was 0.82 ± 0.12 %ID/g and the tissue uptake at 17 min ([2]; muscle) was 0.74 ± 0.13 %ID/g. For the same compound, the tissue uptake at 20 min ([2]; muscle) was 0.69 ± 0.11 %ID/g, the tissue uptake at 23 min ([2]; muscle) was 0.66 ± 0.14 %ID/g and the tissue uptake at 26 min ([2]; muscle) was 0.67 ± 0.16 %ID/g. For the same compound, the tissue uptake at 29 min ([2]; muscle) was 0.56 ± 0.11 %ID/g, the tissue uptake at 0.5 h ([2]; muscle) was 0.55 ± 0.15 %ID/g and the tissue uptake at 1 h ([2]; muscle) was 0.26 ± 0.05 %ID/g. It also gave a tissue uptake at 2 h ([2]; muscle) of 0.07 ± 0.02 %ID/g, a tissue uptake at 4 h ([2]; muscle) of 0.03 ± 0.01 %ID/g and a tissue to tissue ratio at 0.5 h [2, 3] of 1.23 ± 0.25. The tissue to tissue ratio at 1 h [2, 3] was 2.08 ± 0.74, the tissue to tissue ratio at 2 h [2, 3] was 6.97 ± 3.01 and the tissue to tissue ratio at 4 h [2, 3] was 15.9 ± 5.85. The tissue to tissue ratio at 0.5 h ([2]; tumor and kidney) was 0.12 ± 0.01, the tissue to tissue ratio at 1 h ([2]; tumor and kidney) was 0.13 ± 0.03 and the tissue to tissue ratio at 2 h ([2]; tumor and kidney) was 0.12 ± 0.06. It also gave a tissue to tissue ratio at 0.5 h ([2]; tumor and liver) of 1.57 ± 0.14, a tissue to tissue ratio at 1 h ([2]; tumor and liver) of 2.24 ± 0.68 and a tissue to tissue ratio at 2 h ([2]; tumor and liver) of 4.53 ± 1.44. The tissue to tissue ratio at 0.5 h ([2]; tumor and muscle) was 2.69 ± 0.47, the tissue to tissue ratio at 1 h ([2]; tumor and muscle) was 5.01 ± 0.82 and the tissue to tissue ratio at 2 h ([2]; tumor and muscle) was 15.6 ± 3.52. The tissue to tissue ratio at 4 h ([2]; tumor and muscle) was 31.4 ± 9.05, the tissue uptake at 2 min ([2]; tumor) was 1.37 ± 0.21 %ID/g and the tissue uptake at 5 min ([2]; tumor) was 1.41 ± 0.13 %ID/g. It also gave a tissue uptake at 8 min ([2]; tumor) of 1.45 ± 0.13 %ID/g, a tissue uptake at 11 min ([2]; tumor) of 1.46 ± 0.09 %ID/g and a tissue uptake at 14 min ([2]; tumor) of 1.46 ± 0.07 %ID/g. The tissue uptake at 17 min ([2]; tumor) was 1.48 ± 0.08 %ID/g, the tissue uptake at 20 min ([2]; tumor) was 1.51 ± 0.13 %ID/g and the tissue uptake at 23 min ([2]; tumor) was 1.46 ± 0.09 %ID/g. The tissue uptake at 26 min ([2]; tumor) was 1.46 ± 0.13 %ID/g, the tissue uptake at 29 min ([2]; tumor) was 1.45 ± 0.14 %ID/g and the tissue uptake at 0.5 h ([2]; tumor) was 1.43 ± 0.13 %ID/g. The tissue uptake at 1 h ([2]; tumor) was 1.27 ± 0.28 %ID/g, the tissue uptake at 2 h ([2]; tumor) was 1.04 ± 0.45 %ID/g and the tissue uptake at 4 h ([2]; tumor) was 0.98 ± 0.46 %ID/g.
